Patent US20170298119A1 (VISTERRA, published 2017)
Like-named read-outs stand apart in the source and are kept apart here.

Experiments:
[1] = molecular target: T1, wild type ZIKV EDIII displayed on yeast (yeast; Zika virus); test: yeast display of wild type ZIKV EDIII, flow cytometry (Alexa-647 MFI) over hybridoma supernatant dilutions; KD from the 50% maximal binding dilution and the Octet-quantified supernatant concentration
T1 construct: also called WT EDIII

DENV EDIII protein = molecular target: T2, DENV EDIII protein (dengue virus, UniProt P17763 573-679); test: ELISA of Example 7 on coated DENV EDIII, where p-1318 says 'minimal cross-reactivity with the DENV EDIII protein'
T2 construct: domain: EDIII; also called EDIII-DV1; dengue virus E protein domain III

[2] = molecular target: T1, wild type ZIKV EDIII displayed on yeast
recombinant FcRn protein = molecular target: T3, recombinant FcRn protein (Homo sapiens (Human), UniProt P55899 24-297; P61769 21-119); test: BLI (Octet): antibody on anti-CH1 biosensors, recombinant FcRn at pH 6.0; fold change against wild type Motavizumab
T3 construct: also called neonatal Fc receptor; copies: 1 + 1
T3 sequence (P55899 24-297 limits assumed, chain 1 of 2): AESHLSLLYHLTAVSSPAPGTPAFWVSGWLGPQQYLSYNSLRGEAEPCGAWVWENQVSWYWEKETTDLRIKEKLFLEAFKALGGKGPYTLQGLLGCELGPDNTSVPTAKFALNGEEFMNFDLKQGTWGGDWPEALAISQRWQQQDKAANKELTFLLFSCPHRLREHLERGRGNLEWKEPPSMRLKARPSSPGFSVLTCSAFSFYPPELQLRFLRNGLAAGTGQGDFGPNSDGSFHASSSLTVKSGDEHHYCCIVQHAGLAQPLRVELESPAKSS
T3 sequence (P61769 21-119 limits assumed, chain 2 of 2): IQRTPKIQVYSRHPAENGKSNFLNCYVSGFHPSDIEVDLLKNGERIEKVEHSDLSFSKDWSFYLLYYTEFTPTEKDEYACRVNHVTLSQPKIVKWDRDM

T1 sequence (P32781 19-87): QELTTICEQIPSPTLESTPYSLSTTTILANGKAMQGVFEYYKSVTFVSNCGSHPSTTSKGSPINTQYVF
T2 sequence (P17763 573-679 limits assumed): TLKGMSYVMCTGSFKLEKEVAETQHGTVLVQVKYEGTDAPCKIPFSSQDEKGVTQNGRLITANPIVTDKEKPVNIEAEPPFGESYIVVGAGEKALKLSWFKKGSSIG

Binder | Kd [1] [nM] | binding result (DENV EDIII protein) | Kd [2] [nM] | Kd (fold increase) (recombinant FcRn protein) [fold] | koff (fold decrease) (recombinant FcRn protein) [fold] | kon (fold increase) (recombinant FcRn protein) [fold]
ZV-67 (antibody, V domains shown) VH: QVQLQQSGTGLARPGASVKLSCKASGYTFTSYGISWVTQRAGQGLEWIGVIYPRSGNTYYNEKFRGKATLTADKSSSSAYMELRGLTAEDSAVYFCARENYGSVYWGQGTTLTVSS VL: DIVMTQSQKFMSTSVGDRVSITCKASQNVGTAVAWYQQKPGQSPKLLIYSASNRYTGVPDRFTGSGSGTDFTLTISNMQSEDLADYFCQQFSSYPYTFGGGTKLEIK | 0.65 | – | – | – | – | –
ZV-54 (antibody, V domains shown, also called ZWT; Rec54) VH: QVQLQQSGVGLARPGTSVKLSCKASGYSFTTYGISWVTQRPGQGLEWIGVIYPRSNNTYYNERFRGKATLTADKSSSSAYLELRGLTAEDSAVYFCARENYGSVYWGQGTTLTVSS VL: DIVMTQSQKFMSTSVGDRVTITCKASQSVGTAVAWYHQKPGQSPKLLIYSASNRYTGVPDRFTGSGSGTDFTLTITYMQSEDLADYFCQQFSNYPFTFGGGTKLEIK | – | no binding | 0.74 | – | – | –
FcMut186 (antibody) ASTKGPSVFPLAPSSKSTSGGTAALGCLVKDYFPEPVTVSWNSGALTSGVHTFPAVLQSSGLYSLSSVVTVPSSSLGTQTYICNVNHKPSNTKVDKKVEPKSCDKTHTCPPCPAPELLGGPSVFLFPPKPKDTLMISRDPEVTCVVVDVSHEDPEVKFNWYVDGVEVHNAKTKPREEQYNSTYRVVSVLRVLHVDWLNGKEYKCKVSNKALPAPIEKTISKAKGQPREPQVYTLPPSRDELTKNQVSLTCLVKGFYPSDIVVEWESNGQPENNYKTTPPVLDSDGSFFLYSKLTVDKSRWQQGNVFSCSVMHEALHNHYTQKSLSLSPGK | – | – | – | 10.3 | 3.5 | 2.7
FcMut171 (antibody) ASTKGPSVFPLAPSSKSTSGGTAALGCLVKDYFPEPVTVSWNSGALTSGVHTFPAVLQSSGLYSLSSVVTVPSSSLGTQTYICNVNHKPSNTKVDKKVEPKSCDKTHTCPPCPAPELLGGPSVFLFPPKPKDTLMISRDPEVTCVVVDVSHEDPEVKFNWYVDGVEVHDAKTKPREEQYNSTYRVVSVLRVLHVDWLNGKEYKCKVSNKALPAPIEKTISKAKGQPREPQVYTLPPSRDELTKNQVSLTCLVKGFYPSDIAVEWESNGQPENNYKTTPPVLDSDGSFFLYSKLTVDKSRWQQGNVFSCSVMHEALHNHYTQKSLSLSPGK | – | – | – | 8.2 | 3.5 | 2
FcMut229 (antibody) ASTKGPSVFPLAPSSKSTSGGTAALGCLVKDYFPEPVTVSWNSGALTSGVHTFPAVLQSSGLYSLSSVVTVPSSSLGTQTYICNVNHKPSNTKVDKKVEPKSCDKTHTCPPCPAPELLGGPSVFLFPPKPKDTLMISRDPEVTCVVVDVSHEDPEVKFNWYVDGVEVDNAKTKPREEQYNSTYRVVSVLRVLHVDWLNGKEYKCKVSNKALPAPIEKTISKAKGQPREPQVYTLPPSRDELTKNQVSLTCLVKGFYPSDIVVEWESNGQPENNYKTTPPVLDSDGSFFLYSKLTVDKSRWQQGNVFSCSVMHEALHNHYTQKSLSLSPGK | – | – | – | 5.6 | 4.3 | 1.1
